Series [1] has as its target T1, RAD51;BCDX2 complex (human?;human, UniProt Q06609;O15315;O43502;O75771;O43543 1-339;1-384;1-376;1-328;1-280, |). The series is described as follows: BLI; BCDX2 facilitates RAD51 binding; EMSA: 20 mM Tris-HCl pH 7.5, 2 mM MgCl2, 2 mM ATP, 37 C, 20 nM DNA, glutaraldehyde fixation; stopped-flow: 25 mM Tris-HCl pH 7.5, 5 mM MgCl2, 50 mM KCl, 2 mM ATP, 0.5 mM EDTA, 10% glycerol, 37 C; BLI: 50 mM Tris-HCl pH 7.5, 2 mM ATP, 50 mM KCl, 5 mM MgCl2, 0.05% Tween 20, room temperature. As to conditions: protein: recombinant;recombinant; tags: ;Strep-tag and His-tag (XRCC2 N-terminal His); copies: 1;1;1;1;1; label: 5' biotin. (In BLI a coated tip is dipped into the sample, and binding shifts an interference pattern.)

The target in series [2] is T2, RAD51;BCDX2(R159A) (human?;human?, UniProt Q06609;O15315;O43502;O75771;O43543 1-339;1-384;1-376;1-328;1-280, |R159A). The series is described as follows: BLI; no RAD51 loading by mutant; EMSA: 20 mM Tris-HCl pH 7.5, 2 mM MgCl2, 2 mM ATP, 37 C, 20 nM DNA, glutaraldehyde fixation; stopped-flow: 25 mM Tris-HCl pH 7.5, 5 mM MgCl2, 50 mM KCl, 2 mM ATP, 0.5 mM EDTA, 10% glycerol, 37 C; BLI: 50 mM Tris-HCl pH 7.5, 2 mM ATP, 50 mM KCl, 5 mM MgCl2, 0.05% Tween 20, room temperature. As to conditions: protein: recombinant;recombinant; tags: ;; copies: 1;1;1;1;1; label: 5' biotin.

In series [3] the target is T3, RAD51;BCD(R266A)X2 (human?;human?, UniProt Q06609;O15315;O43502;O75771;O43543 1-339;1-384;1-376;1-328;1-280, |R266A). Described as above. The conditions noted are these: protein: recombinant;recombinant; tags: ;; copies: 1;1;1;1;1; label: 5' biotin.
Series [4] has as its target T4, BCDX2 complex (human, UniProt O15315;O43502;O75771;O43543 1-384;1-376;1-328;1-280).
T4 sequence 1: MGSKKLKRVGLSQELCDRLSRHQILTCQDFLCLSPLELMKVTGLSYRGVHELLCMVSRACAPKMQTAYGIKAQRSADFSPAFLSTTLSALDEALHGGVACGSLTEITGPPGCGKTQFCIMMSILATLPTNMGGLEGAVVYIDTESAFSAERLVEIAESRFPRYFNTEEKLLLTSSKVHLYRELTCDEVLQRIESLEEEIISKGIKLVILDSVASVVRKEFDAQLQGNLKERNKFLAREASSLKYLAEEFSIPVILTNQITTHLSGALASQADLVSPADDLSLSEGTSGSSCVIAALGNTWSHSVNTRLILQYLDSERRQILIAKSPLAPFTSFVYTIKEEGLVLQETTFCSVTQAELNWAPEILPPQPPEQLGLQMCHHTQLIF
T4 sequence 2: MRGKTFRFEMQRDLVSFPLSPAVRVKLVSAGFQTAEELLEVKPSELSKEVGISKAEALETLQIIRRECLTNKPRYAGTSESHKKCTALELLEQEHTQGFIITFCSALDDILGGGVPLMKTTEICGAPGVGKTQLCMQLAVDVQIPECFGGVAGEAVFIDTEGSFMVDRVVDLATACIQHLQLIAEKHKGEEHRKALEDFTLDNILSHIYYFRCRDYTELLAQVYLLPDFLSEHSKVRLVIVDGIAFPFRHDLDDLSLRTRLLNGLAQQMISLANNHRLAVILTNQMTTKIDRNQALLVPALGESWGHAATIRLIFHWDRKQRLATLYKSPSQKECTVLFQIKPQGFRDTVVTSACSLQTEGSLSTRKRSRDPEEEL
T4 sequence 3: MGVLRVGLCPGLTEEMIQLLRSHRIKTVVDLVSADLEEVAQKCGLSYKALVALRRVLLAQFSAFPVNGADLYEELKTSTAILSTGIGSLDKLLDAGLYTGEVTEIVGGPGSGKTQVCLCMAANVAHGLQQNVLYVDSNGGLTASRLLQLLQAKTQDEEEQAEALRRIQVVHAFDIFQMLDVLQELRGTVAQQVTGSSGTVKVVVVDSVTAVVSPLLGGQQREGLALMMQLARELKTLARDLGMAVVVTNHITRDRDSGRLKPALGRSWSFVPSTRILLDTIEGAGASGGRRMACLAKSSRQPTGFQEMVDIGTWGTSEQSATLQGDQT
T4 sequence 4: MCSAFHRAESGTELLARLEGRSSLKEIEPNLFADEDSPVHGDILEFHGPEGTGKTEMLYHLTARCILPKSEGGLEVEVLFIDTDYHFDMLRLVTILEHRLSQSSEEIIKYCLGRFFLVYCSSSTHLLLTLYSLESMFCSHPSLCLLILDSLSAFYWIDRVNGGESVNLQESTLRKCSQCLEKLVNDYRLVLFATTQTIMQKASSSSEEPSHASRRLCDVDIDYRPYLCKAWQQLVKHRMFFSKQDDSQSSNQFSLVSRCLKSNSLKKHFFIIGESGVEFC
The series can be described thus: EMSA; efficient binding; EMSA: 20 mM Tris-HCl pH 7.5, 2 mM MgCl2, 2 mM ATP, 37 C, 20 nM DNA, glutaraldehyde fixation; stopped-flow: 25 mM Tris-HCl pH 7.5, 5 mM MgCl2, 50 mM KCl, 2 mM ATP, 0.5 mM EDTA, 10% glycerol, 37 C; BLI: 50 mM Tris-HCl pH 7.5, 2 mM ATP, 50 mM KCl, 5 mM MgCl2, 0.05% Tween 20, room temperature. As to conditions: protein: recombinant; tags: Strep-tag and His-tag (XRCC2 N-terminal His); copies: 1;1;1;1; label: 5' FITC. (A gel shift assay detects complexes by their altered migration in electrophoresis.)

The target in series [5] is T4, BCDX2 complex. The series is described as follows: EMSA; significant binding; EMSA: 20 mM Tris-HCl pH 7.5, 2 mM MgCl2, 2 mM ATP, 37 C, 20 nM DNA, glutaraldehyde fixation; stopped-flow: 25 mM Tris-HCl pH 7.5, 5 mM MgCl2, 50 mM KCl, 2 mM ATP, 0.5 mM EDTA, 10% glycerol, 37 C; BLI: 50 mM Tris-HCl pH 7.5, 2 mM ATP, 50 mM KCl, 5 mM MgCl2, 0.05% Tween 20, room temperature. As to conditions: protein: recombinant; tags: Strep-tag and His-tag (XRCC2 N-terminal His); copies: 1;1;1;1; label: 5' FITC.

Series [6] deals with T4, BCDX2 complex. The series is described as follows: EMSA; 10 nt sufficient within reversed fork; EMSA: 20 mM Tris-HCl pH 7.5, 2 mM MgCl2, 2 mM ATP, 37 C, 20 nM DNA, glutaraldehyde fixation; stopped-flow: 25 mM Tris-HCl pH 7.5, 5 mM MgCl2, 50 mM KCl, 2 mM ATP, 0.5 mM EDTA, 10% glycerol, 37 C; BLI: 50 mM Tris-HCl pH 7.5, 2 mM ATP, 50 mM KCl, 5 mM MgCl2, 0.05% Tween 20, room temperature. The conditions noted are these: protein: recombinant; tags: Strep-tag and His-tag (XRCC2 N-terminal His); copies: 1;1;1;1; label: 3' Cy3 on strand 1; reversed fork of 4 strands, 3' ssDNA tail 10 nt.

The target in series [7] is T1, RAD51;BCDX2 complex. The series is described as follows: BLI; enhanced RAD51 loading; EMSA: 20 mM Tris-HCl pH 7.5, 2 mM MgCl2, 2 mM ATP, 37 C, 20 nM DNA, glutaraldehyde fixation; stopped-flow: 25 mM Tris-HCl pH 7.5, 5 mM MgCl2, 50 mM KCl, 2 mM ATP, 0.5 mM EDTA, 10% glycerol, 37 C; BLI: 50 mM Tris-HCl pH 7.5, 2 mM ATP, 50 mM KCl, 5 mM MgCl2, 0.05% Tween 20, room temperature. The conditions noted are these: protein: recombinant;recombinant; tags: ;Strep-tag and His-tag (XRCC2 N-terminal His); copies: 1;1;1;1;1; label: 3' Cy3 on strand 1; 5' biotin on strand 4; reversed fork of 4 strands, 3' ssDNA tail.

The target of series [8] is T2, RAD51;BCDX2(R159A). The series can be described thus: BLI; RAD51 loading retained; EMSA: 20 mM Tris-HCl pH 7.5, 2 mM MgCl2, 2 mM ATP, 37 C, 20 nM DNA, glutaraldehyde fixation; stopped-flow: 25 mM Tris-HCl pH 7.5, 5 mM MgCl2, 50 mM KCl, 2 mM ATP, 0.5 mM EDTA, 10% glycerol, 37 C; BLI: 50 mM Tris-HCl pH 7.5, 2 mM ATP, 50 mM KCl, 5 mM MgCl2, 0.05% Tween 20, room temperature. As to conditions: protein: recombinant;recombinant; tags: ;; copies: 1;1;1;1;1; label: 3' Cy3 on strand 1; reversed fork of 4 strands, 3' ssDNA tail.

In series [9] the target is T3, RAD51;BCD(R266A)X2. The description is as above. The conditions noted are these: protein: recombinant;recombinant; tags: ;; copies: 1;1;1;1;1; label: 3' Cy3 on strand 1; reversed fork of 4 strands, 3' ssDNA tail.

The source of these data is paper PMC11514458.

T2 sequence (Q06609 whole entry, stated change not applied, one chain of several): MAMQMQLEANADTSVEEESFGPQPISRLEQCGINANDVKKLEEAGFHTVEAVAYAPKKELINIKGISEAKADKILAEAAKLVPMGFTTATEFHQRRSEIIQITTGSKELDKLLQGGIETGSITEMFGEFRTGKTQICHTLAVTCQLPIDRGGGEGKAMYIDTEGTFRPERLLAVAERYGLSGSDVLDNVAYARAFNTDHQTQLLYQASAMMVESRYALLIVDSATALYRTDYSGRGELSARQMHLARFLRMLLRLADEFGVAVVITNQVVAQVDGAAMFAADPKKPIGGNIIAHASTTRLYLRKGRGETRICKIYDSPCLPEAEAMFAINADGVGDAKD
T1 sequence (Q06609 whole entry, one chain of several): as the sequence (Q06609 whole entry, stated change not applied, one chain of several) above
T3 sequence (Q06609 whole entry, stated change not applied, one chain of several): as above

With TTTTTTTTTTTTTTT (ssDNA) [biotin-dT15], the binding result in the series with RAD51;BCDX2 complex [1] is listed as “binds”.

As for TTTTTTTTTTTTTTTTTTTT (ssDNA) [biotin-dT20], the binding result with RAD51;BCDX2(R159A) [2] and with RAD51;BCD(R266A)X2 [3] was “no binding” in each case.

Regarding GAATGTGTGTCTCAATC (ssDNA) [ssDNA 20mer], in the series with BCDX2 complex [4], the binding result is “binds”.

AGAAGAGAGCAGAGG (ssDNA) [ssDNA 15mer]: the binding result with BCDX2 complex [5] is listed as “binds”.

B1: 10ntRVF (mixed)
DNA 1: GACGCTGCCGAATTCTACCAGTGCCTTGCTATTTTTTTTTT
DNA 2: ATCTGTTGTAATCGTCAAGCTTTATGCCGTT
DNA 3: GAACGGCATAAAGCTTGACGATTACAACAGATCATGGAGCTGTCTAGAGGATCCGACTATCGA
DNA 4: ATCGATAGTCGGATCCTCTAGACAGCTCCATGTAGCAAGGCACTGGTAGAATTCGGCAGCGT
As to B1, the binding result with BCDX2 complex [6] is “binds”.

B2: RVF25ssDNA (mixed)
DNA 1: GACGCTGCCGAATTCTACCAGTGCCTTGCTATTTTTTTTTTTTTTTTTTTTTTTTTTTTTT
DNA 2: B1 DNA 2
DNA 3: B1 DNA 3
DNA 4: B1 DNA 4
On to B2, for which the binding result with RAD51;BCDX2 complex [7] is “binds”.

B3: 20ntRVF (mixed)
DNA 1: GACGCTGCCGAATTCTACCAGTGCCTTGCTATTTTTTTTTTTTTTTTTTTTTTTTT
DNA 2: B1 DNA 2
DNA 3: B1 DNA 3
DNA 4: B1 DNA 4
On to B3, for which the binding result in the series with RAD51;BCDX2(R159A) [8] and in the series with RAD51;BCD(R266A)X2 [9] was “binds” each time.
